Laboratory results from PMC2808462 (Biochemistry, 2010).

Target: the molecule itself
Test: AUC

B1: human progesterone receptor B-isoform (PR-B), residues 1-933 (natural protein, UniProt P06401 1-933, looked up)
chain: MTELKAKGPRAPHVAGGPPSPEVGSPLLCRPAAGPFPGSQTSDTLPEVSAIPISLDGLLFPRPCQGQDPSDEKTQDQQSLSDVEGAYSRAEATRGAGGSSSSPPEKDSGLLDSVLDTLLAPSGPGQSQPSPPACEVTSSWCLFGPELPEDPPAAPATQRVLSPLMSRSGCKVGDSSGTAAAHKVLPRGLSPARQLLLPASESPHWSGAPVKPSPQAAAVEVEEEDGSESEESAGPLLKGKPRALGGAAAGGGAAAVPPGAAAGGVALVPKEDSRFSAPRVALVEQDAPMAPGRSPLATTVMDFIHVPILPLNHALLAARTRQLLEDESYDGGAGAASAFAPPRSSPCASSTPVAVGDFPDCAYPPDAEPKDDAYPLYSDFQPPALKIKEEEEGAEASARSPRSYLVAGANPAAFPDFPLGPPPPLPPRATPSRPGEAAVTAAPASASVSSASSSGSTLECILYKAEGAPPQQGPFAPPPCKAPGASGCLLPRDGLPSTSASAAAAGAAPALYPALGLNGLPQLGYQAAVLKEGLPQVYPPYLNYLRPDSEASQSPQYSFESLPQKICLICGDEASGCHYGVLTCGSCKVFFKRAMEGQHNYLCAGRNDCIVDKIRRKNCPACRLRKCCQAGMVLGGRKFKKFNKVRVVRALDAVALPQPVGVPNESQALSQRFTFSPGQDIQLIPPLINLLMSIEPDVIYAGHDNTKPDTSSSLLTSLNQLGERQLLSVVKWSKSLPGFRNLHIDDQITLIQYSWMSLMVFGLGWRSYKHVSGQMLYFAPDLILNEQRMKESSFYSLCLTMWQIPQEFVKLQVSQEEFLCMKVLLLLNTIPLEGLRSQTQFEEMRSSYIRELIKAIGLRQKGVVSSSQRFYQLTKLLDNLHDLVKQLHLYCLNTFIQSRALSVEFPEMMSEVIAAQLPKILAGMVKPLLFHKK
- stoichiometry N: 2
